PMC10017041 (Science Advances, 2023)

Assays:
Assay in all cases: cryo-EM structure
[1] = target: CCT6 subunit of yeast TRiC (S. cerevisiae, UniProt P39079 1-546)
[2] = target: CCT5 subunit of yeast TRiC (S. cerevisiae, UniProt P40413 1-562)
[3] = target: CCT7 subunit of yeast TRiC (S. cerevisiae, UniProt P42943 1-550)
[4] = target: CCT2 subunit of yeast TRiC (S. cerevisiae, UniProt P39076 1-527)
[5] = target: CCT4 subunit of yeast TRiC (S. cerevisiae, UniProt P39078 1-528)
[6] = target: CCT3 subunit of yeast TRiC (S. cerevisiae, UniProt P39077 1-534)
CCT3 subunit of yeast TRiC, sequence (P39077 whole entry): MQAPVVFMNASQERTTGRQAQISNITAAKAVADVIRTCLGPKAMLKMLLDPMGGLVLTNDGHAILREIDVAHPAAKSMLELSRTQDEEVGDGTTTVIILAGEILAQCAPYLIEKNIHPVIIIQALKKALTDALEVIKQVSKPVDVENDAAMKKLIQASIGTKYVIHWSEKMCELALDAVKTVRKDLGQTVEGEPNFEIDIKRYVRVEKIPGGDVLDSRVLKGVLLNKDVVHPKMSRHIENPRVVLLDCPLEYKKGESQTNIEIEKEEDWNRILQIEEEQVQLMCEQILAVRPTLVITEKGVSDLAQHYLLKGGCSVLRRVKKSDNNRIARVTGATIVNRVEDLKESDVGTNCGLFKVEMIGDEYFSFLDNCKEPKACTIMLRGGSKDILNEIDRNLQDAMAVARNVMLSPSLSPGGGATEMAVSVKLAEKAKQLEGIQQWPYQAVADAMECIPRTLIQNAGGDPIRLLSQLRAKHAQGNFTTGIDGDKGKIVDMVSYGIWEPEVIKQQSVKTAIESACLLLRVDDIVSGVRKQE

[7] = target: CCT1 subunit of yeast TRiC (S. cerevisiae, UniProt P12612 1-559)
CCT1 subunit of yeast TRiC, sequence (P12612 whole entry): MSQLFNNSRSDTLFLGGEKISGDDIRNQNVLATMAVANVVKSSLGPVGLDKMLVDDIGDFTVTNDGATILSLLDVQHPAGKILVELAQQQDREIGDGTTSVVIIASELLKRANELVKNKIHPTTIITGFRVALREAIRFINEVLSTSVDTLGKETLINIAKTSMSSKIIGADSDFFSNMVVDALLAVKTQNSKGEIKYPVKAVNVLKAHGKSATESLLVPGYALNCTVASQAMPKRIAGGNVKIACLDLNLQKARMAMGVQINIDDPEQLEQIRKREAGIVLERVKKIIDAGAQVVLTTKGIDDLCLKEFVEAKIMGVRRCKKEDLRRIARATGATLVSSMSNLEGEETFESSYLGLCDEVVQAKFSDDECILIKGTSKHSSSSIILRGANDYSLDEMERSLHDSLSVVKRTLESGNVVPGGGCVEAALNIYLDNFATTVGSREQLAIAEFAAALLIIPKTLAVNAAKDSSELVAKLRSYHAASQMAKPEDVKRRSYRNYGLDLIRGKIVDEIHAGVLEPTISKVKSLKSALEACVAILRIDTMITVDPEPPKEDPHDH

Measured: binding result

CCT7 subunit of yeast TRiC, sequence (P42943 whole entry): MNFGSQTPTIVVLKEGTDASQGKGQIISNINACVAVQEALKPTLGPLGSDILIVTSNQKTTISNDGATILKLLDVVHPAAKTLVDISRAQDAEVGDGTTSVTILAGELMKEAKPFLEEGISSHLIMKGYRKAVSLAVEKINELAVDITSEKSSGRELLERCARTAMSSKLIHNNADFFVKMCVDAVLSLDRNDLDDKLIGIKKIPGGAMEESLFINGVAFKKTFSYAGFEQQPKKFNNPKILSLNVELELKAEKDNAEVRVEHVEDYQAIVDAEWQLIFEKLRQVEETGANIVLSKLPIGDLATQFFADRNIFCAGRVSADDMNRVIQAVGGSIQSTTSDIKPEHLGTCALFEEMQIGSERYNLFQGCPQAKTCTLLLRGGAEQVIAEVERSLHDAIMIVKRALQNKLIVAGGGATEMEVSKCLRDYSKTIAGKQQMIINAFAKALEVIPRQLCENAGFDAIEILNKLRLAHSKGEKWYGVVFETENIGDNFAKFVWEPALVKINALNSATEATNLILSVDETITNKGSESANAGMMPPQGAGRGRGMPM
CCT4 subunit of yeast TRiC, sequence (P39078 whole entry): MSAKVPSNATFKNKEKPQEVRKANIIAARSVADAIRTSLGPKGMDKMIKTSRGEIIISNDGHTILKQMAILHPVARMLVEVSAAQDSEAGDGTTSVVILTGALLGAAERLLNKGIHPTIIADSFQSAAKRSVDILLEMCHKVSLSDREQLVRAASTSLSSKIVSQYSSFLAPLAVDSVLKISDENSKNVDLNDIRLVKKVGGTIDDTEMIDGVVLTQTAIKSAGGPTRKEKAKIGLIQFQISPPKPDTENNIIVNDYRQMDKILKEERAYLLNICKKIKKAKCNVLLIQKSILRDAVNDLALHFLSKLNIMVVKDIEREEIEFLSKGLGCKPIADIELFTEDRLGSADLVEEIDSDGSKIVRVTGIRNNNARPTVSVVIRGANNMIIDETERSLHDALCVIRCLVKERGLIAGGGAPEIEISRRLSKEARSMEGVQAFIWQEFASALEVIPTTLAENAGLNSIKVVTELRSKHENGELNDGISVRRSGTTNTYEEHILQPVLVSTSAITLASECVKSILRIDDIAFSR
CCT5 subunit of yeast TRiC, sequence (P40413 whole entry): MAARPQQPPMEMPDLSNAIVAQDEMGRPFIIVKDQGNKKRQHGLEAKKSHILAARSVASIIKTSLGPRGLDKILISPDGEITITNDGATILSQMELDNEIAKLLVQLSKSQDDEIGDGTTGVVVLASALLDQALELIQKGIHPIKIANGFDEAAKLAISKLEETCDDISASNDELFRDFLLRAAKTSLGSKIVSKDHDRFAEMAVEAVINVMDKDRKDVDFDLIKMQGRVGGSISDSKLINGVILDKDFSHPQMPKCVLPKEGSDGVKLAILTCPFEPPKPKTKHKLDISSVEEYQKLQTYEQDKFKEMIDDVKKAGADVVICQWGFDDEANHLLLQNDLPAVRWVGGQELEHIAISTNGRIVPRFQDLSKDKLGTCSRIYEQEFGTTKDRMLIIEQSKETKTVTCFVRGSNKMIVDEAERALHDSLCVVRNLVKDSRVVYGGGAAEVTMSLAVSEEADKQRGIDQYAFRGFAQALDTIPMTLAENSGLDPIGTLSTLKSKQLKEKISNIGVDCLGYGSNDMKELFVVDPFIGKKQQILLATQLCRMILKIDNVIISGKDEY
CCT2 subunit of yeast TRiC, sequence (P39076 whole entry): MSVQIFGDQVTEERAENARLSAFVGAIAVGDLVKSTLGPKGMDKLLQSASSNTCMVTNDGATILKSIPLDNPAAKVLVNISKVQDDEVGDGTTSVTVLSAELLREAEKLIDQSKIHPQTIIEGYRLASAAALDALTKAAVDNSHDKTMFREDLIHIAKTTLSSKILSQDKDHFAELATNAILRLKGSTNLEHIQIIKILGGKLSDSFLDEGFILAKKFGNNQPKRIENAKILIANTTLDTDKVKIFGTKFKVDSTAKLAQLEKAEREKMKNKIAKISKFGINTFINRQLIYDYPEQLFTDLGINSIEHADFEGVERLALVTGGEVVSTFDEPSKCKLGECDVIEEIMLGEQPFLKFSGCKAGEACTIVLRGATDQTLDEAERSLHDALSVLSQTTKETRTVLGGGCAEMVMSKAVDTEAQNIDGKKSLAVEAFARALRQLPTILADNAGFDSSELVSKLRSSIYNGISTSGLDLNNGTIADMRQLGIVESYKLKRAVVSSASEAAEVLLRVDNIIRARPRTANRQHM
CCT6 subunit of yeast TRiC, sequence (P39079 whole entry): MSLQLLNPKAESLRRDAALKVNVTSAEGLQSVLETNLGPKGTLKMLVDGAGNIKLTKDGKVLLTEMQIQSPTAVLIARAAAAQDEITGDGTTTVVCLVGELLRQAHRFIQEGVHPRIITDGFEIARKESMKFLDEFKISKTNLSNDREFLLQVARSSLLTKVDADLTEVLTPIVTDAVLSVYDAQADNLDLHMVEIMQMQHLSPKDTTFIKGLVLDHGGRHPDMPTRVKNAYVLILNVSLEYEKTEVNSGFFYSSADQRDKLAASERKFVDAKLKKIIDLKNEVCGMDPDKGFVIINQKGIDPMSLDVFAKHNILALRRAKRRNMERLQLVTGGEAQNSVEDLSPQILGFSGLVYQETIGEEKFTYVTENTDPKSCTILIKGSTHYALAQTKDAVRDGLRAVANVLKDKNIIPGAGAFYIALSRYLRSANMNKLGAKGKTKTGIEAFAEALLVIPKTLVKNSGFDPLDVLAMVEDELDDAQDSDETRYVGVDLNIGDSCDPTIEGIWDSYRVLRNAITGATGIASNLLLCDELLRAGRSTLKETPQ

B1: yeast plp2 (homolog of PhLP2 in Saccharomyces cerevisiae) (natural protein, S. cerevisiae)
chain: MQNEPMFQVQVDESEDSEWNDILRAKGVIPERAPSPTAKLEEALEEAIAKQHENRLEDKDLSDLEELEDDEDEDFLEAYKIKRLNEIRKLQERSKFGEVFHINKPEYNKEVTLASQGKKYEGAQTNDNGEEDDGGVYVFVHLSLQSKLQSRILSHLFQSAACKFREIKFVEIPANRAIENYPESNCPTLIVYYRGEVIKNMITLLELGGNNSKMEDFEDFMVKVGAVAEGDNRLIMNRDDEESREERKLHYGEKKSIRSGIRGKFNVGIGGNDDGNINDDDDGFFD
binds: all assays above
